The data set deals with the molecule itself. Briefly: SEC. In general terms: In gel filtration, larger molecules generally elute earlier.

B1: recombinant murine chromogranin B (CHGB) (natural protein, mouse, UniProt P16014 21-677, looked up)
chain: APVDNRDHNEEMVTRCIIEVLSNALSKSSVPTITPECRQVLKKSGKEVKGEEKGENQNSKFEVRLLRDPADASGTRWASSREDAGAPVEDSQGQTKVGNEKWTEGGGHSREGVDDQESLRPSNQQASKEAKIYHSEERVGKEREKEEGKIYPMGEHREDAGEEKKHIEDSGEKPNTFSNKRSEASAKKKDESVARADAHSMELEEKTHSREQSSQESGEETRRQEKPQELTDQDQSQEESQEGEEGEEGEEGEEGEEDSASEVTKRRPRHHHGRSGSNKSSYEGHPLSEERRPSPKESKEADVATVRLGEKRSHHLAHYRASEEEPEYGEESRSYRGLQYRGRGSEEDRAPRPRSEESQEREYKRNHPDSELESTANRHGEETEEERSYEGANGRQHRGRGREPGAHSALDTREEKRLLDEGHYPVRESPIDTAKRYPQSKWQEQEKNYLNYGEEGDQGRWWQQEEQLGPEESREEVRFPDRQYEPYPITEKRKRLGALFNPYFDPLQWKNSDFEKRGNPDDSFLEDEGEDRNGVTLTEKNSFPEYNYDWWERRPFSEDVNWGYEKRSFARAPQLDLKRQYDGVAELDQLLHYRKKADEFPDFYDSEEQMGPHQEANDEKARADQRVLTAEEKKELENLAAMDLELQKIAEKFSQRG
On to B1, for which the “stoichiometry N” value is 2.

By stoichiometry N is commonly meant a count of units in the complex or per binding partner.
